Experiment: yeast display, Sf9 membrane polyspecificity reagent, FACS + sequencing; frameworks hold sequencing errors
How it was run: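 Galactose induction of a Saccharomyces cerevisiae BJ5465 synthetic nanobody display library ran 36–48 hours. The cells were then stained for 1 hour at 4 °C with 10% biotinylated, detergent-solubilized Sf9 membrane reagent, pulled down on streptavidin microbeads and FACS-sorted into low and high (top ~1%) gates on expression and reagent-binding fluorescence. Labels for polyreactivity follow the gate of origin.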

Sequence | polyreactivity (PSR sort gate)
QVQLVESAGGLVQAGGSLRLSCAASGRIFRANAMGWYRQAPGKERELVATIRNSGGITYYADSVKGRFTISRDHAKNTVYLQMNSLIPEDTAVYYCAKLGRYGYDYWGQGTQVTVSS | high polyreactivity
QVQLVESVGGLVKAGGSLRLSCAASGSIFGTNAMGWYRQAPGKERELVAVISDGGSTYYADSVKGRFTISRENAKNTVYLQMNSLKPADTAVYYCNTPLESPFYSRVGTTESDHWGQGTQVTVSS | low polyreactivity
QVQLVESGGGLVQAGCSLGLSCAASGRIVDYKAMGWYRQAPGKEWELVATLTSSSVRTHYPDSLKGRFSISRDNAKNTVYLQMNSLNPEDTSVYYWNAAYGPRYPRRYDYWGQGTQVTVSS | low polyreactivity
QVQLVESGGGLVQAGGSLRLSCAASGSIIHSYAMGWYRQAPGKERELVAAISRNGGSTYYADSVKGRFTISRDNAKITVYLQMNSLKPEDTAVYYCAKTYSQTWRYGYWGQGTQVTVSS | high polyreactivity
QVQLVESGGGLVQAGGSLRLSCAASGSTFGYYAMGWYRQAPGKERELVAAISRGDSTNYADSVKGRFTISRDNAKNTVYLQMNSLKPEDTAVYYCAADQLNVCREYVEYDYWGQGTQVTVAS | low polyreactivity
QVQLVESGGGLVQAGGSLRLSCAASGFIFYPYAMGWYRQAPGKERELVAVITSGGRTYYADSVKGRFTISRDNAKNTVYLQMNSLKPEDTAVYYCAAQYIQAWRLFDYWGQGTQVTVSS | low polyreactivity
QVQLVESGGGLVQAGGSLRLSCAASGSTFGYNAMGWYRQAPGKERELVAAIRRSGGSTYYADSVKGRFTISRDNAKNTVYLQMNSLKPEDTAVYYCAAAGGKRHEYWGQGTQVTVSS | high polyreactivity
QVQLVESGGGLVQAGGSLRLSCAASGRIFPPNAMGWSRQAPGKERELVAAITRGGSTYYADSVKGRFTISRDNAKNTVYLQMNSLKPEDTAVYYCATVPWYIKVGQKRNDYWGQGTQVTVSS | high polyreactivity
QVQLGESGGGLVQAGGSLRLSCAASGIIFISYDMGWYRQAPWKERELVARINWDGGSTYYADSVKGRFTISRDNAKNTVYLQMNSLKPEDTAVYYCAAGFVGTNYPLQGFSYEYWGQGTQVTVSS | low polyreactivity
QDQLVESGGGLVQAGGSLRLSCAASGSIIYAYAMGWYRQAPGKERELVAAISWTGGSTYYADSVKGRFTISRDNAKNTVYLQMNCLKPEDTAVYYCAATYYQVASFYVTRYDYWGQGTQVTVSS | low polyreactivity
QVQLVESGGGLVQAGCSLRLSCAASGSTFRKYAMGWYSQAPGKQREFVAAITSSGGSTYYSDSVKGRFTISRDKAKNTVYLLMNSLIPEDTAVYYCASRGVYVSTAYNYWGQGTQVTESS | high polyreactivity
QVQLGESGGGLVQAGGSLRLSCAASGFTFYGNAMGWYRQAPGKERELVAAITYSGGRTYYADSVKGRFTISRDNAKNTVYLQMNSLKPEDTAVYYCARRRGYGQYDYWGQGTQVTVSS | high polyreactivity
QVQLVESGGGLVQAGGSLRLSCAASGSIFTHNAMGWSRQAPGKERELVATISYGGGRTYYADSVKGRFTISRDNAKNTVYLQMNSLKPEDTAVYYCNALRGGPFRWHGYYYWGQGTQVTVSS | low polyreactivity
QVQLVESGGGLVQAGGSLRLSCAASGSTFANNDMGWYRQAPGIEREMVADIRSGGNTNYADSVKGRFTISRDNAKNTVVLQMHSVKPEDTAVYYCATDGYRIDVYQPDYRYDYWGQGTQVTVSS | low polyreactivity
QVQLVESGGGLVQAGGSLRLSCAASGRTFVYKAMGWYRQSPGKERELVAALDGGGDRTYYADSVKGRFTISRDNAKNTVYLQMNSLKPEDTAVYYCARDPGDTYYYSYPEGDYWGEGTQVTVSS | low polyreactivity
QVQLVESGGGLVQAGGSLRLSCAASGRTLVRYTMGWYRQAPGKERELVASISQRGGTTYYADSVKGRFTISRDNAKNTVYLQMNSLKPEDTAVYYCNKASVSGSSGGGYESWGQGTQVTVSS | low polyreactivity
QVQLVESGGGLVQAGGSLRLSCAASGLTIRSYGMGWYRQAPGKERELVASITWSGGSTYYADSVKGRFTISRDNAKNTVYLQMNSLKPEDTAVYYCAASFDFQGYHYGYWGQGTQVTVSS | high polyreactivity
QVQLVESGGGLVQAGGSLRLSCAASGRIFGYYAMGWYRLAPGKERELVAAITSGGRTTYADSVKGRFTISRDNAKNTVYVQMNSLKPEDTAVYYCAKEYPRYSSPYDYWGQGTQVTVSS | low polyreactivity
QVQLVESGGGLVQAGGSLRLSCAASGSTFAPNAMGWYRQAPGKERELVASIRRGGSTHYADSVKGRFTISRDNAKNTVYVQMNSLKPEDTAVYYCAKDVWRHYLNLYDYWGQGTQVTVSS | low polyreactivity
QVQLQESGCGLVQAGGSLRLSCAASGDIIEADDMGWYRQAPGKERELVASITDGGSTNCADSMKGRSTICRDNAKITVYLQMNSLKLEDTAVYYCAAIAYPDVPTYFDYDSDYFYWGQGTLVTVSS | high polyreactivity
QVQLVESGGGLVQAGGSLRLTCAASGSTFIRNTMGWYRQAPGKERELVAAISRSGVRTYYADSVKGRFTISRDNAKNTVYLQMNSLKPEDTAVYYCNVLRYRLWGQGTQVTVSS | high polyreactivity
QVQLVESGGGLVQAGGSLRLSCAASGSTFTVYAMGWYRQAPGKERELVAAISSSTGSTYYADSVKGRFTISRDNAKNTVYLQMNSLKPEDTAVSYCAADVYHVTTSSYTEFEYWGQGTQVTVSS | low polyreactivity

Sequence | polyreactivity (PSR sort gate)
QDQLVESGGGLDQAGGSLRLSCAAYGSTFGYYALGWSRQAPGKERELVAAISWSGSNTYYADSVKGRFTISRDNAKNTVYLQMNSLTPEDTAVYYCAAVYRGSRAWGYDYWGQGTQVTVSS | high polyreactivity
PVQLVESGGGLVQAGGSLRLSCAASGSTFVVYAMGWYRQAPGKERELVAAITSGVSTNYADSVKGRFTISRDNAKNTVYLQMNSLKPEDTAVYYCNKDVRPAYRWYDYWGQDTQVTVSS | low polyreactivity
QVQLVESGGGLVQAGGSLRLSCAASGRTFVSYVMGWYRQAPGKERELVAAIDQSGDRTYYPDSVKGRFTISRDNAKNTVYLQMNSLKPEDTAVYYCASRWGYSSRPYYYWGQGTQVTVSS | high polyreactivity
QVQLHESGGGLVQAGGSLRLSCAASGTISYAGPMGWYRQAPGKEREFVAGIGVGSNTNYADSVKGRYTIIRDNAKNTVYLQMNSLQPEDTAVYYCAVGGFAPLGRPYWGQGTQVTVSS | low polyreactivity
QVKLVESAVGLVQAGGSLRLSCAASGRTFCSYAMGWYRQAPGKERELVAAISRGGSRTYYADSVKGRFTISRDNAKNTVYLQMNSLKPEDTAVYYCAADPTASGHFLGQVDYWGQGTQVTVSS | high polyreactivity
QVQLVESGGGLVQAGGSLRLSCAASGFIFGVNAMGWYRQAPGKEPELVAAINGGASTYYADSVKGRFTISRDNAKNTVYLQMNSLKPEDTAVYYCAAVFYDYRGRLYPNFGLYYYWGQGTQVTVSS | high polyreactivity
QVQLVESGGGLVQAGGSLRLSCAASGSIFGSYDMGWYRQAPGKERELVAAISEGGGSTYYADTVKGRFTISRDNAMNTVYLQMYSLKPEDTAVYYCAADLILSYYPYYQDYYWGQGTQVTVSS | low polyreactivity
QVQLVESGGGLVQAGGSLRLSCAASGSIFYPYTMGWYRQAPGKEREFVAAITGGGGRTYYADSVKGRFTISRDNAKNTVYLQMNSLKPEDTAVYYCATDTYDVNVWELGMDYWGQGTQVTVSS | low polyreactivity
QVQLVESGGGLVQAGGSLRLSCAASGFTFWWYAMGWYRQAPGKERELVAAISSGGSTNYADSVKGRFTISRDNAKNTVYLQMNSLKPEDTAVYYCNKDYYGSPSSYYGYDYWGQGTQVTESS | high polyreactivity
QVQLVESGGGLVQAGGSLRLSCAASGRIFSGYAMGWYRQAPGKERELVAAIYGGGSTNYADSVKGRFTISRDNAKNTVYLQMNSLKPEDTAVYYCATQYWHYPYWLYKYDYWGQGTQVTVSS | low polyreactivity
QVQLVESGGGLVQAGGSLRLSCAASGSTFRVNGMGWYRQAPGKERELVAVISWSGGSTYYADSVKGRFTISRDNAKNSVYLQMNSLKPEDTAVYYCAAKVKAGAGYHYDYYWGQGTQVTVSS | high polyreactivity
QVQLVESGGVLVQAGGSLRLSCAASVGIFDYYTMGWYRQAPGKERELVAAISASGGITYYADSVKGRFTISRDNANNTVYLQMNSMKPEDTAVYYCAAGVRNDYWWYYYWGQGTQVTVSS | high polyreactivity
QVQLVESGGGLVQAGGSLRLSCAASGFTFEFNVMGWYRQAPGKERELVASIRWGSTSYADSVKGRFTISRDNAKNTVYLQMNSLKPEDTAVYYCAADRSTGLGDDDYWGQGTQVTVSS | low polyreactivity
QVQLVESGGGLVQAGGSLRLSCAASGSTFQFYAMGWYRQAPGKEREFVAGIRSSGGTYYADSVKGRFTISRDNAKNTVYLQMNSLKPEDTAVYYCAAVSSYSPYRRTYYYWGQGTQVTVSS | high polyreactivity
HDQLVESGGGLVEAGGSLRLSCAASGITFKGYAMGWYRPAPGKERELVAAITSGGSTKYADSVKGRFTSSRDNAKNTVYLQMNSLKPEDTAVYYCAAAVVNYGWWTYGYYGFGYWGQGTQVTVSS | high polyreactivity
QVQLVESGGGLVQAGGSLRVSCAASGSTFQYYAMGWYRQAPGKERELVARISDSSANTYYADSVKGRFTISRDNAKNTVYLQMNSLKPEYTAVYYCATRRSHVLSEMDYWGQGTQVTVSS | low polyreactivity
QVQLVESRGGLVQAGGSLRLSCAASGFTFDNYGMGWYSQAPGKERELVAAISKSGTSTYYADSGKGRFTITRDNAKNTVYLQMNSLNPEDTAVYYCSGALPGYGDYYYWGQGTQVTVSS | high polyreactivity
QVQLVESGGGLVQAGGSLRLSCAASRFYTMGWYRQAPGKERELVAAISWSGGDTYYADSVKGRFTISRDNAKNTVYLQMNSLKPVDTAVYYRAKKTIGSYVHEPYYYWGQGTQVTVSS | low polyreactivity
QVQLVESGGGLVQAGGSLRLSCAASGFTFAYYAMGWYRQAPGKERELVAAITGSGGRTYYADSVKGRFTISRDNAKNTVYLQMNSLKPEDTAVYYCAALTGPYKAQVHGGHTPLDYWGQGTQVTVSS | low polyreactivity
QVQLVESGGGLVQAGGSLRLSCAASGSILQYKAMGWYRQAPGKERELVADITSSGGSTYYADSVKGRFTISRDNAKYTVSLQMNSLKPEDTAVYYFAKDTHWAYYWGQGTQVTVSS | low polyreactivity
QVQLVESGGGLVQAGGSLRLSCAASRSTFYYYAMGWYRQAPGKERELVATISWSGDSTYADSVKGRFTISRDNAKNTVYLQMNRLKPEDTAVYYCATSGDWWGFRYDYLGQGTQVTVSS | low polyreactivity

Source: the nanobody polyreactivity screen of Harvey et al. (2022)
